The assay has as its target cyno EpCAM (cyno). As to the kind of experiment: assay not stated; drawn table, heading 'Binding Affinity (nM)', column 'Cyno'.

Chain of cyno EpCAM (cyno) (Q1WER1 24-265): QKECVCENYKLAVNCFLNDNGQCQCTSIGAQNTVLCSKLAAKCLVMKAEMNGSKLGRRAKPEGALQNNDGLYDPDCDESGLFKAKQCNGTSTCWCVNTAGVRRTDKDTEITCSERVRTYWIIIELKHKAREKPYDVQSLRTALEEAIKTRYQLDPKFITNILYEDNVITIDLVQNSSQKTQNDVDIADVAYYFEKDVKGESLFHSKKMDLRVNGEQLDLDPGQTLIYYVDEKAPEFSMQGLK

B1: hVIB-23 (VHH)
VHH: QVQLVESGGGLVQPGGSLTLSCVISGSFSALWAMRWYRQAPGQQRELVASSRGGTTSYADSVKGRFTISRDNSKNTLYLQMNSLRPEDTAVYYCNAIDGHLAYWGQGTLVTVSS
As for B1, the affinity, expressed as Kd, was 51.8 nM.

The record behind these values is patent US20240199739A1 (Takeda / Millennium, published 2024).
